The results in this text go back to article PMC5651189.

For the assay, the target named is PKA regulatory subunit RIIα (human (endogenous in SK-Br-3)) (UniProt P13861). The assay can be described thus: proximity ligation.
PKA regulatory subunit RIIα (human (endogenous in SK-Br-3)), sequence (P13861 whole entry): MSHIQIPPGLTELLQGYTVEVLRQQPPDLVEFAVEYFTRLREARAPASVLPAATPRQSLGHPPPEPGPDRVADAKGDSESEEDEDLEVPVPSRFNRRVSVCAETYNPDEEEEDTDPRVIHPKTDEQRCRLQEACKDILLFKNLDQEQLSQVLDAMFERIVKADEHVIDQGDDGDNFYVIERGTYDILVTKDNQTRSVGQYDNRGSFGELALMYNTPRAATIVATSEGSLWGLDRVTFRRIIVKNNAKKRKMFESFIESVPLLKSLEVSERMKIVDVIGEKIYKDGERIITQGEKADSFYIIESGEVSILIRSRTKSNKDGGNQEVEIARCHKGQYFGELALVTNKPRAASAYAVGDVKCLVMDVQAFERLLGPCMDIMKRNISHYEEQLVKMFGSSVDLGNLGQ

For the substance “PKA catalytic subunit (PKAc) (from UniProt P17612 1-351) (enzyme)”, the decrease of CICF in SK.tDp^T39A against SK.empty cells was found to be 67% and the increase of CICF in SK.tDp against SK.empty cells came out at 36%.
